From a protein production outcome set (Wang et al. 2014)

Assay: label from the status in PepcDB records
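Also: failed if final PepcDB status was selected cloned or expressed and not failed if soluble or beyond.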

## MRGPAVLLTVALATLLAPGAGAPVQSQGSQNKLLLVSFDGFRWNYDQDVDTPNLDAMARDGVKARYMTPAFVTMTSPCHFTLVTGKYIENHGVVHNMYYNTTSKVKLPYHATLGIQRWWDNGSVPIWITAQRQGLRAGSFFYPGGNVTYQGVAVTRSRKEGIAHNYKNETEWRANIDTVMAWFTEEDLDLVTLYFGEPDSTGHRYGPESPERREMVRQVDRTVGYLRESIARNHLTDRLNLIITSDHGMTTVDKRAGDLVEFHKFPNFTFRDIEFELLDYGPNGMLLPKEGRLEKVYDALKDAHPKLHVYKKEAFPEAFHYANNPRVTPLLMYSDLGYVIHGRINVQFNNGEHGFDNKDMDMKTIFRAVGPSFRAGLEVEPFESVHVYELMCRLLGIVPEANDGHLATLLPMLHTESALPPDGRPTLLPKGRSALPPSSRPLLVMGLLGTVILLSEVA
  protein production: failed

## MMPKRFNTSGFDTTLRLPSYYGFLHLTQSLTLNSRVFYGARHVTPPAIRIGSNPVQSLLLFRAPTQLTGWNRSSRDLLGRRVSFSDRSDGVDLLSSSPILSTNPNLDDSLTVIALPLPHKPLIPGFYMPIHVKDPKVLAALQESTRQQSPYVGAFLLKDCASTDSSSRSETEDNVVEKFKVKGKPKKKRRKELLNRIHQVGTLAQISSIQGEQVILVGRRRLIIEEMVSEDPLTVRVDHLKDKPYDKDNAVIKASYVEVISTLREVLKTNSLWRDQDIGDFSYQHLADFGAGISGANKHKNQGVLTELDVHKRLELTLELVKKQVEINKIKETDDGSSLSAKIRVRIDTKRDKIPKHVIKVMEEEFTKLEMLEENYSDFDLTYNYLHWLTVLPWGNFSYENFDVLRAKKILDEDHYGLSDVKERILEFIAVGRLRGTSQGKIICLSGPPGVGKTSIGRSIARALDRKFFRFSVGGLSDVAEIKGHCQTYVGAMPGKMVQCLKSVGTANPLILFDEIDKLGRCHTGDPASALLEVMDPEQNAKFLDHFLNVTIDLSKVLFVCTANVIEMIPGPLLDRMEVIDLSGYVTDEKMHIARDYLVKKTCRDCGIKPEHVDLSDAALLSLIENYCREAGVRNLQKQIEKIYRKVALELVRQGAVSFDVTDTKDTKSLAKTDSEVKRMKVADIMKILESATGDSTESKTKQSGLVAKTFEKVMIDESNLADYVGKPVFQEEKIYEQTPVGVVMGLAWTSMGGSTLYIETTFVEEGLGKGGLHITGQLGDVMKESAQIAHTVARRIMFEKEPENLFFANSKLHLHVPEGATPKDGPSAGCTMITSFLSLAMKKLVRKDLAMTGEVTLTGRILPIGGVKEKTIAARRSQIKTIIFPEANRRDFEELAENMKEGLDVHFVDEYEKIFDLAFNYDH
  protein production: failed

## MSSPSEFPLSEAPQSARKGLLPIAMVLFSFTFFTGTMFAGGKLGMAFSFVDMLWVATLGNSLLALYAAALAFIASRSGLNTVLMGRFCFGEAGSRLSDFLLGFAELGWYAWGTATVAIVLVKLLGLADGFGMPLMVLFGLGFSITAIIGFKGLDLLSRVSVPLMFVLLLVSMYIATRDAGGFAGLAAVVPHETMTFSAAVTMVFGTFASGATQATNWTRLARSGRVAVIASGVAFLLGNGLMVVAGAWCAMVYQQADIVDVMMLQGLSFAAVVMLCLNLWTIQGPTIYNVSAAACHLLRSERRRTATLVAAGVGIVLAMGGMYEMLIPFLVLLGSIIPPVGGVIMADFWYRHRGKYPPLCTANLPRYNLTGLFAYAVGAVLAYASPWVAPLVGIAASAVCYIVILELGARRRAPGQAGVEP
  protein production: failed

## MEPNRFGDILAFVSAVKAGSFTSAAATLGVTRSAVGKSVARLEARLGVRLLHRTTRKLNVTGEGLVVFERWSQILEDLEEVDATMAQRRGKPAGILRLTAPLSFGQRHILPILNAYVTNWPEIQADVWFTDHYVDLIEEGIDVAVRIGGVKDDARILSRTIGGQQFVTCAAPGYLAKKGVPSTPADLAGHDTIFFLSGQRPMPWRLGQGDAIEVCDGPGRMNIDSSEALREAALSGFGLIHLPTYITGKDLQRGDLVEVLEAYRPPADPIRLIYPSKRHLSPRTRAFIDLLIERWRDGVPWERLEPAS
  protein production: failed

## MRSIRLRVDWRATASLLGTVLKYLAVALLVPLTVAVIYWEDIWVFAVAIAITVTLGFTLERLDPEPDMGPAEALLLVTVSWLAVAMVGSVPYLLAGYGTASTLANPVNALFESMSGFTTTGATVMGEISTDQHSHALLLWRQLTQWLGGMGIIVLMIAILPELAVNGAQLMKTEAPGPELQKLTPRIAETARVLWLVYFGFTVLLAALLYGLHLAGFAPNMHLYNAVAHAFTTLPTGGFSPESDSIAAFSAVVQWVIIPFMVIAGTNFALFWHLLDGDIRTLLNDAEFRVYAGAIAVLSAILAALLYGGAAPAQELGGTTAGNTENALRQAAFQVGSLMNSTGFATSDFAQWGPTAQALLLFTMFVGGSAGSTGGGIKVIRWLVVMKAIRRELSVTARPEAVKPVRLGGYVVDEDVVRGIMVFTLLYLALFGAATVFFAVDSLRVGYELSVLEAMSASIATLGNIGPGFGMLGPFGSYLGFPPETKIVMVFLMWVGRLEIIPVLAVFTGAFWKR
  protein production: failed

## MSRDTERYPVKHANSLWQIYKTVPFWKVVKNFVVIQLARYTPFVSVKNWLYRTFLKMDVGEKTAFALMVMPDIMFPERISVGRNSIIGYNTTILAHEYLIEEYRLGDVIIGDEVMVGANTTILPGVTIGDRAIIAAGTVVHKNVPPGAFVGGNPMQVIKQLEHHHHHH
  protein production: failed

## MEQTDITSLIPIAITLIISLTTRNVVVGLFAGVLSGVAMLNGLFTTLGPFETFGVMVKSYISPQLTDSYNAGVIVLLVFIGGFVALMEKSGGGLAFAEKVTLWVKSKFQAQTSAWLGGIIIFFSDLGTPLIVGPVFRPLFDKLKISRQKLAFIIDSTSSPVAILIPFIGWGVYIMGLIQKEFTALNVTDITDWDAFLGAIPYQFYAILAIAIVPLVALKKLDFGPMAKAEAIASKGELHASSDISKEIFTHKNAKASFVWAPLLVMGAVLVFMLAPLGFPFEKVSGSVFRSALSTAYFFAAFTLIILMAMNKVRSLSDGISVYMKGMGNMMQVAIILILAWTLSSVGKELGAAAYIAEQAQNGFPYWLVPAVSFLLAAIISFATGSSWGTFAIMMHLVIPTAITIDAPMFVCIGAVLSGGLFGDHCSPISETTILSSTGAGCDQFEHFKTQLPYALLNGGIALVSFLIAGIFDNPLIFILALIAQVTLVVTLAKLTPENMFNKSKLVAGNQLG
  protein production: failed

## MLDLVNQLELDSQMKQFKLVSQMTRQDVIILDEPGYLPFSQKRGALLFHLMSQLHENTSVIITTNLEFSEWGTLFTEAKMTNALLDRLIHHCHMLETGNESYRFKHRNLEHHHHHH
  protein production: failed

## CLVDPHTVLPSPISGPTETIRSLRRCAAAGGYGQVALLPRGQSWRDQPERLIGLQNADPSSVHLPLWGGFSLNGKGDELAPHGDLLEHGAIGLADDDAVVPLPLLERGLLLGEMGSCPVLIAPRDPNLQGDGLAREGVETLRAGWAPDPLISELLPLQQLLALQQRHPDRQLRLMNISTAAAVDLLGQADPQLKASVCWWHLLVDGSSLSSTDPGCRVRPSLGGAADRLRLRSALQSGLIQAVAVHAVPLDEEDMLLPADQRPPGLSGHHLVMPALWSALVDQGDLSIESLWELLSFGPSAFLDQP
  protein production: failed

## MGHHHHHHSHMASRVRVTILFATETGKSEALAWDLGALFSCAFNPKVVCMDKYRLSCLEEERLLLVVTSTFGNGDCPGNGEKLKKSLFMLKELNNKFRYAVFGLGSSMYPRFCAFAHDIDQKLSHLGASQLTPMGEGDELSGQEDAFRSWAVQTFKAACETF
  protein production: failed

## MSLTTPTMIAAVVEEANGPFVLRKLARPQPAPGQVLVQIEASGTNPLDAKIRAGEAPHAQQPLPAILGMDLAGTVVAVGPEVDSFRVGDAVFGLTGGVGGLQGTHAQFAAVDARLLASKPAALTMRQASVLPLVFITAWEGLVDRAQVQDGQTVLIQGGGGGVGHVAIQIALARGARVFATARGSDLEYVRDLGATPIDASREPEDYAAEHTAGQGFDLVYDTLGGPVLDASFSAVKRFGHVVSCLGWGTHKLAPLSFKQATYSGVFTLHTLLANEGLAHFGEMLREADALVQTGKLAPRLDPRTFSIAEIGSAYDAVLGRNDVPRQRGKIAITVEGHHHHHH
  protein production: not failed

## VTATETVRVRFCPSPTGTPHVGLVRTALFNWAYARHTGGTFVFRIEDTDAQRDSEESYLALLDALRWLGLDWDEGPEVGGPYGPYRQSQRAEIYRDVLARLLAAGEAYHAFSTPEEVEARHVAAGRNPKLGYDNFDRHLTDAQRAAYLAEGRQPVVRLRMPDDDLAWNDLVRGPVTFAAGSVPDFALTRASGDPLYTLVNPCDDALMKITHVLRGEDLLPSTPRQLALHQALIRIGVAERIPKFAHLPTVLGEGTKKLSKRDPQSNLFAHRDRGFIPEGLLNYLALLGWSIADDHDLFGLDEMVAAFDVADVNSSPARFDQKKADALNAEHIRMLDVGDFTVRLRDHLDTHGHHIALDEAAFAAAAELVQTRIVVLGDAWELLKFFNDDQYVIDPKAAAKELGPDGAAVLDAALAALTSVTDWTAPLIEAALKDALIEGLALKPRKAFSPIRVAATGTTVSPPLFESLELLGRDRSMQRLRAARQLVGHA
  protein production: not failed

## MKKTKVHLISGFLGTGKTTALKSLMAQKDPNEKWVIIVNEFGEIGIDGAVLSDNGIPVAEIAGGCLCCTAGPQMGVTVQKMLRDAKPDRLMIEASGLAHAASVIDELKTKPLDSLLEIGAVFTVVDPRQFINPDYAQQALYKDQIGICDVLVASKTDLCTPEQLAEFHDKAAKLFPPKAKVVEVQNAQLDIQWLDIPVIEKSRYRLKALPDNTMGFQSQGFTFPAGRDFDGEKLTNFFNDLPNMTEGLVRAKGVFQVLGTWVWLNWVDGQWGANQVSWRRDSRFELIAKSFDADLIEQKLKDALELEHHHHHH
  protein production: failed

## MCTPFIFVVYAKSKYLCVLISNEMGKNKLEKFADMASYPHVFEYPYSAVDNVPFDMKGKWHQEFFGNDHPIVLELGCGRGEYTVGLGRMFPDKNFIAVDIKGSRMWTGATESLQAGMKNVAFLRTNIEIIERFFAAGEVSEIWLTFSDPQMKKATKRLTSTYFMERYRKFLKPDGIIHLKTDSNFMFTYTKYMIEANQLPVEFITEDLYHSDLVDDILSIKTYYEQQWLDRGLNIKYIKFRLPLEHHHHHH
  protein production: failed

## MSQPLNVAVVGATGSVGEALVGLLDERDFPLHRLHLLASAESAGQRMGFAESSLRVGDVDSFDFSSVGLAFFAAAAEVSRAHAERARAAGCSVIDLSGALEPSVAPPVMVSVNAERLASQAAPFLLSSPCAVAAELCEVLAPLLATLDCRQLNLTACLSVSSLGREGVKELARQTAELLNARPLEPRLFDRQIAFNLLAQVGAVDAEGHSAIERRIFAEVQALLGERIGPLNVTCIQAPVFFGDSLSVTLQCAEPVDLAAVTRVLDATKGIEWVGEGDYPTVVGDALGQDETYVGRVRAGQADPCQVNLWIVSDNVRKGAALNAVLLGELLIKHYL
  protein production: not failed

## MLKFLKNWTLPIAMLVGAVGYPVFISFSFLTPILIFTMLLLTFCKVSPRDLKPKPLHLWLLLIQIFGSLIVYLLLYRFNKIVAEGAMVCVICPTATAAAVITSKLGGSAASLTTYTLIANIGAAIAVPILFPLIEANPGISFIDAFLVILSKVFPLLICPFLAAWFLQRFIPKVHKVLLGYHELAFYLWGISLAIVTAQTLYSLINDPADGLTEIMIAVVALIACCLQFFLGKTLGSIYNDRISGGQALGQKNTILAIWMAHTYLNPLSAVGPGSYVLWQNIINSWQLWKKRKKESEKCSNNVSG
  protein production: failed

## MTISNKTLTAAAAGLAAVLAVLLVPALAGQSAHTGHTMPAHTPPAQTAPAAQKAGAQALPVTVQGATVAAVPPSIRDTAAYMTLTNKSDQPIKLVGAATPLATSPMLMTTTHSGGMAGMKMVPWLTIPARGTLTLQRDGDHVMLMGLKRPLKVGETVNITLKATDGRTLNVAATVKKN
  protein production: not failed
